Binding signal data for three sequences are collected here from PMC8136818.

The data set has as its system SmpO45 (Staphylococcus aureus plasmid pWBG745). Nature of the data set: SPR. Particulars: SPR: 10 mM HEPES, 150-300 mM NaCl, 3 mM EDTA, 0.05% Tween 20, 1 uM protein (pH, temperature not given); EMSA: Li-Cor binding buffer, 0.5 ug/ul herring sperm ….
For “CCCCATAAAATATGGGGTCATATTTCCCTT / AAGGGAAATATGACCCCATATTTTATGGGGCCTACCCTACGTCCTCCTGC [OT45.10]”, the binding signal came to 30 % Rmax.
As for “GACACTATAGTTTATTGTGGGGTCACTTTA / TAAAGTGACCCCACAATAAACTATAGTGTCCCTACCCTACGTCCTCCTGC [OT45.3]”, the binding signal was 30 % Rmax.
The value for “TTTATTGTGGGGTCACTTTAAATTCTTTAA / TTAAAGAATTTAAAGTGACCCCACAATAAACCTACCCTACGTCCTCCTGC [OT45.4]” was 30 % Rmax.
